This note sets out measurements from PMC314469, “Protein Interaction Networks by Proteome Peptide Scanning” (PLoS Biology, 2004).

The test concerns the target T1, Abp1 SH3 (ABP1_YEAST), P15891.
T1 chain: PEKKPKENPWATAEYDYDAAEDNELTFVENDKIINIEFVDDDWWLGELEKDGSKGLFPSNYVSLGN
Nature of the test: SPOT array.
AAAAPPLPSDVRP [YDR159W 245-257] came in with a normalised SPOT signal, Boehringer light units (BLU); mean over the file's lines of this peptide of 60.6.
For the molecule AAAPDVKPHDTKP [YPR125W 432-444], the normalised SPOT signal, Boehringer light units (BLU); mean over the file's lines of this peptide was determined as 45.6.
Regarding YSRQAIPPPVPNRP [YLR144C 3-16], the normalised SPOT signal, Boehringer light units (BLU); mean over the file's lines of this peptide turned out to be 1840.
The molecule YDVIEVVPEPGKP [YDR301W 1057-1069] registered a normalised SPOT signal, Boehringer light units (BLU); mean over the file's lines of this peptide of 37.
YYVLNPNNKQPIKP [YNL076W 85-98] registered a normalised SPOT signal, Boehringer light units (BLU); mean over the file's lines of this peptide of 82.3.
For WDGVIPTPAIIKP [YDL140C 556-568] the value was 78.
AAPNSNVPTNERP [YGL122C 485-497] returned a normalised SPOT signal, Boehringer light units (BLU); mean over the file's lines of this peptide of 146.
For YEHLTSVKIVPQRP [YAL054C 40-53] the value was 113.
For ADDSFIFPDEDKP [YNL103W 152-164] the value was 61.8; for YKWTVPAPVGPRP [YHR158C 222-234], 1300; for WTLNKDKIAHPVRP [YBR276C 624-637], 1090.
Consider YQKTFKLPWDPRP [YBL086C 310-322], for which the normalised SPOT signal, Boehringer light units (BLU); mean over the file's lines of this peptide amounted to 155.
The molecule YKWTIPQPIGRRP [YGR238C 182-194] registered a normalised SPOT signal, Boehringer light units (BLU); mean over the file's lines of this peptide of 3200.
For YYSASPLPASKRP [YMR108W 43-55] the value was 144; for ADQRKLFPNWIKP [YHR165C 1003-1015], 456.
The molecule WSRHFFLPRSKRP [YBL012C 87-99] registered a normalised SPOT signal, Boehringer light units (BLU); mean over the file's lines of this peptide of 324.
Molecule YYRLDALPKDGKP [YGL245W 693-705] had a normalised SPOT signal, Boehringer light units (BLU); mean over the file's lines of this peptide of 219.
As to YTNMNSLVATPMKP [YHR015W 541-554], the normalised SPOT signal, Boehringer light units (BLU); mean over the file's lines of this peptide stood at 145.
For the molecule AAVPTKTIASPQRP [YOR227W 52-65], the normalised SPOT signal, Boehringer light units (BLU); mean over the file's lines of this peptide was 243.
Molecule YPQMLALPIARRP [YBL022C 179-191] showed a normalised SPOT signal, Boehringer light units (BLU); mean over the file's lines of this peptide of 8030.
YEATPFDPITVKP [YNL330C 3-15] registered a normalised SPOT signal, Boehringer light units (BLU); mean over the file's lines of this peptide of 62.3.
Next, AAADSVSPDSQRP [YLL027W 53-65]: 182; YKVYFSTPRDVKP [YBR024W 225-237]: 114.
For YNPYGISPNHARP [YJR059W 184-196] the value was 223.
YTDNDDYPELDRP [YOR292C 157-169] displayed a normalised SPOT signal, Boehringer light units (BLU); mean over the file's lines of this peptide of 140.
Next, YKDSFYKEMTPSKP [YOR177C 24-37]: 164.
Next, YASPMYDFLYPFRP [YOR002W 18-31]: 179; YASALKEMTHPIKP [YLR239C 24-37]: 34.2; YTPTSSQPRPPPRP [YGR268C 67-80]: 532.
On to AAELGNNALPPTKP [YNR046W 63-76], for which the normalised SPOT signal, Boehringer light units (BLU); mean over the file's lines of this peptide came to 86.6.
In the case of AAYNAKKAAKPAKP [YAL003W 104-117], the normalised SPOT signal, Boehringer light units (BLU); mean over the file's lines of this peptide stood at 109.
Consider YDNKVEEGSKPKKP [YOR168W 668-681], for which the normalised SPOT signal, Boehringer light units (BLU); mean over the file's lines of this peptide was 140.
Next, YNESAPLQPFPERP [YFL041W 454-467]: 15.5; YRLLRLLPHASRP [YOR267C 685-697]: 64.
The molecule YFPSKTVGSHPRKP [YPL162C 135-148] yielded a normalised SPOT signal, Boehringer light units (BLU); mean over the file's lines of this peptide of 311.
Molecule WRYLPAPPVSIRP [YOR116C 258-270] returned a normalised SPOT signal, Boehringer light units (BLU); mean over the file's lines of this peptide of 1240.
Next, YAEILKNRMNPEKP [YBL034C 847-860]: 100.
For the molecule AGDDEPGADEPARP [YOL073C 298-311], the normalised SPOT signal, Boehringer light units (BLU); mean over the file's lines of this peptide amounted to 27.3.
Next, YLNESFVMQQPIKP [YGR067C 417-430]: 179; WIRSTLNHIIPRRP [YML061C 4-17]: 66.3; AGGGIWGPMEKKP [YHR093W 43-55]: 120.
As for YYRELLSFLSPGKP [YML005W 156-169], the normalised SPOT signal, Boehringer light units (BLU); mean over the file's lines of this peptide came out at 59.8.
As to YIRNAVKENFPEKP [YBR137W 45-58], the normalised SPOT signal, Boehringer light units (BLU); mean over the file's lines of this peptide was 118.
The molecule ASVEQFDLKMPSKP [YLR055C 485-498] came in with a normalised SPOT signal, Boehringer light units (BLU); mean over the file's lines of this peptide of 112.
For the molecule YKPWSAWSYLPPKP [YDL035C 229-242], the normalised SPOT signal, Boehringer light units (BLU); mean over the file's lines of this peptide was found to be 208.
In turn, YRVYFSTPPNVKP [YBR037C 219-231] yielded a normalised SPOT signal, Boehringer light units (BLU); mean over the file's lines of this peptide of 138.
Molecule YFTSSYFPDDRRP [YKL004W 102-114] showed a normalised SPOT signal, Boehringer light units (BLU); mean over the file's lines of this peptide of 304.
For YVTFTTIPYKEKP [YCL058C 12-24], the normalised SPOT signal, Boehringer light units (BLU); mean over the file's lines of this peptide was found to be 70.4.
The molecule YYNDLSYYLRPIKP [Q0115 375-388] gave a normalised SPOT signal, Boehringer light units (BLU); mean over the file's lines of this peptide of 128.
Molecule WSIKLWDLSKPSKP [YAR003W 94-107] came in with a normalised SPOT signal, Boehringer light units (BLU); mean over the file's lines of this peptide of 135.
WRSKRIEQLFPVRP [YDL150W 191-204] showed a normalised SPOT signal, Boehringer light units (BLU); mean over the file's lines of this peptide of 201.
For the molecule YYVSKRVPVKNRP [YNL023C 118-130], the normalised SPOT signal, Boehringer light units (BLU); mean over the file's lines of this peptide worked out at 211.
Regarding AEGNVKPWNPPQKP [YLR295C 56-69], the normalised SPOT signal, Boehringer light units (BLU); mean over the file's lines of this peptide was found to be 160.
YNYSFQFDKFPRKP [YLR392C 110-123] showed a normalised SPOT signal, Boehringer light units (BLU); mean over the file's lines of this peptide of 275.
